In US20090092581A1:

Experiments:
[1] = target: Cynomolgus interferon alpha 2 (SEQ ID NO: 66), purified from inclusion bodies after expression in E. coli (Cynomolgus (Macaca fascicularis)); assay: sandwich ELISA kit PBL #41100-1; signal relative to human IFN-α2 (FIG. 3)
[2] = target: Rhesus interferon alpha 2 (Rhesus) (UniProt B6CK11); assay: as above
[3] = target: Cynomolgus IFN-α protein SEQ ID 56, expressed in Vero tissue culture supernatant (Cynomolgus (Macaca fascicularis)); assay: ELISA kit PBL #41100 (head prints 41110) on Vero supernatant; read against human IFN-α2a standard curve; unit not given
[4] = target: Cynomolgus IFN-α protein SEQ ID 62, expressed in Vero tissue culture supernatant (Cynomolgus (Macaca fascicularis)); assay: as above
[5] = target: Cynomolgus IFN-α protein SEQ ID 46, expressed in Vero tissue culture supernatant (Cynomolgus (Macaca fascicularis)); assay: as above
[6] = target: Cynomolgus IFN-α protein SEQ ID 58, expressed in Vero tissue culture supernatant (Cynomolgus (Macaca fascicularis)); assay: as above
[7] = target: Cynomolgus IFN-α protein SEQ ID 60, expressed in Vero tissue culture supernatant (Cynomolgus (Macaca fascicularis)); assay: as above
[8] = target: Cynomolgus IFN-α protein SEQ ID 66, expressed in Vero tissue culture supernatant (Cynomolgus (Macaca fascicularis)); assay: as above
[9] = target: Cynomolgus IFN-α protein SEQ ID 54, expressed in Vero tissue culture supernatant (Cynomolgus (Macaca fascicularis)); assay: as above
[10] = target: Cynomolgus IFN-α protein SEQ ID 50, expressed in Vero tissue culture supernatant (Cynomolgus (Macaca fascicularis)); assay: as above
[11] = target: Cynomolgus IFN-α protein SEQ ID 42, expressed in Vero tissue culture supernatant (Cynomolgus (Macaca fascicularis)); assay: as above

Chain of UniProt B6CK11 (B6CK11 entry or part of it): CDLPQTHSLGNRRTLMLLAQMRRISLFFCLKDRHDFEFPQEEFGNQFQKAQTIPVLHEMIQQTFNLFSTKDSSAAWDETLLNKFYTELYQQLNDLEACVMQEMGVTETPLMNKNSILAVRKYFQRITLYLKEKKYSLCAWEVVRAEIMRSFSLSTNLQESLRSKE

## Human IFN-α ELISA kit, PBL Biomedical Laboratories Product #41100-1 (kit antibodies) (antibody)
[1]
  specific ELISA signal compared to human IFN-α2: 10%
[2]
  specific ELISA signal compared to human IFN-α2: 10%
[3]
  ELISA estimate of IFN-α protein level in tissue culture supernatant: 0
[4]
  ELISA estimate of IFN-α protein level in tissue culture supernatant: 0
[5]
  ELISA estimate of IFN-α protein level in tissue culture supernatant: 0
[6]
  ELISA estimate of IFN-α protein level in tissue culture supernatant: 66
[7]
  ELISA estimate of IFN-α protein level in tissue culture supernatant: 0
[8]
  ELISA estimate of IFN-α protein level in tissue culture supernatant: 184
[9]
  ELISA estimate of IFN-α protein level in tissue culture supernatant: 11
[10]
  ELISA estimate of IFN-α protein level in tissue culture supernatant: 296
[11]
  ELISA estimate of IFN-α protein level in tissue culture supernatant: 0
